Measurements reported in IntAct's records for PubMed 11106648.

B1: Tyrosine-protein phosphatase non-receptor type 1 (Homo sapiens), P18031 (parent)
chain: MEMEKEFEQIDKSGSWAAIYQDIRHEASDFPCRVAKLPKNKNRNRYRDVSPFDHSRIKLHQEDNDYINASLIKMEEAQRSYILTQGPLPNTCGHFWEMVWEQKSRGVVMLNRVMEKGSLKCAQYWPQKEEKEMIFEDTNLKLTLISEDIKSYYTVRQLELENLTTQETREILHFHYTTWPDFGVPESPASFLNFLFKVRESGSLSPEHGPVVVHCSAGIGRSGTFCLADTCLLLMDKRKDPSSVDIKKVLLEMRKFRMGLIQTADQLRFSYLAVIEGAKFIMGDSSVQDQWKELSHEDLEPPPEHIPPPPRPPKRILEPHNGKCREFFPNHQWVKEETQEDKDCPIKEEKGSPLNAAPYGIESMSQDTEVRSRVVGGSLRGAQAASPAKGEPSLPEKDEDHALSYWKPFLVNMCVATVLTAGAYLCYRFLFNSNT

Variants of: B1
Conditions: with cadh2_chick CDH2, P10288
cadh2_chick CDH2, P10288, sequence (P10288 whole entry): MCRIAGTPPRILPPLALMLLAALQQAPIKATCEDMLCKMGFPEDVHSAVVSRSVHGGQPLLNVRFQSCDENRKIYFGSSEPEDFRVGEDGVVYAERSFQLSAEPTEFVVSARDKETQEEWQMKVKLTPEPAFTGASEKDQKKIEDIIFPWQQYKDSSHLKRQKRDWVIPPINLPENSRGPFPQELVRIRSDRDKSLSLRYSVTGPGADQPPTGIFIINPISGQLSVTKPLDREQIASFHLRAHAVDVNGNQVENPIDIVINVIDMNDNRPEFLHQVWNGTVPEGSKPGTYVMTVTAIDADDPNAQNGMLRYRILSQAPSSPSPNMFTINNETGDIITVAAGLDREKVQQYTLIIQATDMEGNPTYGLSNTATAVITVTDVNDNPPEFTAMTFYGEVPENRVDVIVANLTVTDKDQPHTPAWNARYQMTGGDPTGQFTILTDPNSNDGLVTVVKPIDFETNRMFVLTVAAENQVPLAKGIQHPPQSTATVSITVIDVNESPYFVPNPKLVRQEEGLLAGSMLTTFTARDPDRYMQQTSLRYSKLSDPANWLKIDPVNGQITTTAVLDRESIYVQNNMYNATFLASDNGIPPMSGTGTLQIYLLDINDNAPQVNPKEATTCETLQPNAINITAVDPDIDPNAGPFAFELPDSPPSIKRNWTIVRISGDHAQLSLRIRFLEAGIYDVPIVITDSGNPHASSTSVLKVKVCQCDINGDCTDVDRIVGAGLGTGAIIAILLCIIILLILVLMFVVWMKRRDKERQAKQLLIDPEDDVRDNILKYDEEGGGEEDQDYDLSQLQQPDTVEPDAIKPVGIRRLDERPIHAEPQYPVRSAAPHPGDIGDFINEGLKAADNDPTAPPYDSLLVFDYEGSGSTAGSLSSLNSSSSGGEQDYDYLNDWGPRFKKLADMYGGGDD

Variant | effect of a mutation on the interaction
MEMEKEFEQIDKSGSWAAIYQDIRHEASDFPCRVAKLPKNKNRNRYRDVSPFDHSRIKLHQEDNDFINASLIKMEEAQRSYILTQGPLPNTCGHFWEMVWEQKSRGVVMLNRVMEKGSLKCAQYWPQKEEKEMIFEDTNLKLTLISEDIKSFYTVRQLELENLTTQETREILHFHYTTWPDFGVPESPASFLNFLFKVRESGSLSPEHGPVVVHCSAGIGRSGTFCLADTCLLLMDKRKDPSSVDIKKVLLEMRKFRMGLIQTADQLRFSYLAVIEGAKFIMGDSSVQDQWKELSHEDLEPPPEHIPPPPRPPKRILEPHNGKCREFFPNHQWVKEETQEDKDCPIKEEKGSPLNAAPYGIESMSQDTEVRSRVVGGSLRGAQAASPAKGEPSLPEKDEDHALSYWKPFLVNMCVATVLTAGAYLCYRFLFNSNT [Y66F;Y152F] | decreasing interaction
MEMEKEFEQIDKSGSWAAIYQDIRHEASDFPCRVAKLPKNKNRNRYRDVSPFDHSRIKLHQEDNDFINASLIKMEEAQRSYILTQGPLPNTCGHFWEMVWEQKSRGVVMLNRVMEKGSLKCAQYWPQKEEKEMIFEDTNLKLTLISEDIKSYYTVRQLELENLTTQETREILHFHYTTWPDFGVPESPASFLNFLFKVRESGSLSPEHGPVVVHCSAGIGRSGTFCLADTCLLLMDKRKDPSSVDIKKVLLEMRKFRMGLIQTADQLRFSYLAVIEGAKFIMGDSSVQDQWKELSHEDLEPPPEHIPPPPRPPKRILEPHNGKCREFFPNHQWVKEETQEDKDCPIKEEKGSPLNAAPYGIESMSQDTEVRSRVVGGSLRGAQAASPAKGEPSLPEKDEDHALSYWKPFLVNMCVATVLTAGAYLCYRFLFNSNT [Y66F] | increasing interaction
MEMEKEFEQIDKSGSWAAIYQDIRHEASDFPCRVAKLPKNKNRNRYRDVSPFDHSRIKLHQEDNDYINASLIKMEEAQRSYILTQGPLPNTCGHFWEMVWEQKSRGVVMLNRVMEKGSLKCAQYWPQKEEKEMIFEDTNLKLTLISEDIKSFYTVRQLELENLTTQETREILHFHYTTWPDFGVPESPASFLNFLFKVRESGSLSPEHGPVVVHCSAGIGRSGTFCLADTCLLLMDKRKDPSSVDIKKVLLEMRKFRMGLIQTADQLRFSYLAVIEGAKFIMGDSSVQDQWKELSHEDLEPPPEHIPPPPRPPKRILEPHNGKCREFFPNHQWVKEETQEDKDCPIKEEKGSPLNAAPYGIESMSQDTEVRSRVVGGSLRGAQAASPAKGEPSLPEKDEDHALSYWKPFLVNMCVATVLTAGAYLCYRFLFNSNT [Y152F] | decreasing interaction
MEMEKEFEQIDKSGSWAAIYQDIRHEASDFPCRVAKLPKNKNRNRYRDVSPFDHSRIKLHQEDNDYINASLIKMEEAQRSYILTQGPLPNTCGHFWEMVWEQKSRGVVMLNRVMEKGSLKCAQYWPQKEEKEMIFEDTNLKLTLISEDIKSYYTVRQLELENLTTQETREILHFHYTTWPDFGVPESPASFLNFLFKVRESGSLSPEHGPVVVHSSAGIGRSGTFCLADTCLLLMDKRKDPSSVDIKKVLLEMRKFRMGLIQTADQLRFSYLAVIEGAKFIMGDSSVQDQWKELSHEDLEPPPEHIPPPPRPPKRILEPHNGKCREFFPNHQWVKEETQEDKDCPIKEEKGSPLNAAPYGIESMSQDTEVRSRVVGGSLRGAQAASPAKGEPSLPEKDEDHALSYWKPFLVNMCVATVLTAGAYLCYRFLFNSNT [C215S] | increasing interaction

Further lines, results first:

effect of a mutation on the interaction | Variant
decreasing interaction | MEMEKEFEQIDKSGSWAAIYQDIRHEASDFPCRVAKLPKNKNRNRYRDVSPFDHSRIKLHQEDNDFINASLIKMEEAQRSYILTQGPLPNTCGHFWEMVWEQKSRGVVMLNRVMEKGSLKCAQYWPQKEEKEMIFEDTNLKLTLISEDIKSFFTVRQLELENLTTQETREILHFHYTTWPDFGVPESPASFLNFLFKVRESGSLSPEHGPVVVHCSAGIGRSGTFCLADTCLLLMDKRKDPSSVDIKKVLLEMRKFRMGLIQTADQLRFSYLAVIEGAKFIMGDSSVQDQWKELSHEDLEPPPEHIPPPPRPPKRILEPHNGKCREFFPNHQWVKEETQEDKDCPIKEEKGSPLNAAPYGIESMSQDTEVRSRVVGGSLRGAQAASPAKGEPSLPEKDEDHALSYWKPFLVNMCVATVLTAGAYLCYRFLFNSNT [Y66F;Y152F;Y153F]
increasing interaction | MEMEKEFEQIDKSGSWAAIYQDIRHEASDFPCRVAKLPKNKNRNRYRDVSPFDHSRIKLHQEDNDFINASLIKMEEAQRSYILTQGPLPNTCGHFWEMVWEQKSRGVVMLNRVMEKGSLKCAQYWPQKEEKEMIFEDTNLKLTLISEDIKSYFTVRQLELENLTTQETREILHFHYTTWPDFGVPESPASFLNFLFKVRESGSLSPEHGPVVVHCSAGIGRSGTFCLADTCLLLMDKRKDPSSVDIKKVLLEMRKFRMGLIQTADQLRFSYLAVIEGAKFIMGDSSVQDQWKELSHEDLEPPPEHIPPPPRPPKRILEPHNGKCREFFPNHQWVKEETQEDKDCPIKEEKGSPLNAAPYGIESMSQDTEVRSRVVGGSLRGAQAASPAKGEPSLPEKDEDHALSYWKPFLVNMCVATVLTAGAYLCYRFLFNSNT [Y66F;Y153F]
increasing interaction | MEMEKEFEQIDKSGSWAAIYQDIRHEASDFPCRVAKLPKNKNRNRYRDVSPFDHSRIKLHQEDNDYINASLIKMEEAQRSYILTQGPLPNTCGHFWEMVWEQKSRGVVMLNRVMEKGSLKCAQYWPQKEEKEMIFEDTNLKLTLISEDIKSYFTVRQLELENLTTQETREILHFHYTTWPDFGVPESPASFLNFLFKVRESGSLSPEHGPVVVHCSAGIGRSGTFCLADTCLLLMDKRKDPSSVDIKKVLLEMRKFRMGLIQTADQLRFSYLAVIEGAKFIMGDSSVQDQWKELSHEDLEPPPEHIPPPPRPPKRILEPHNGKCREFFPNHQWVKEETQEDKDCPIKEEKGSPLNAAPYGIESMSQDTEVRSRVVGGSLRGAQAASPAKGEPSLPEKDEDHALSYWKPFLVNMCVATVLTAGAYLCYRFLFNSNT [Y153F]

Variants of: B1
Conditions: with cadh2_mouse Cdh2, P15116
cadh2_mouse Cdh2, P15116, sequence (P15116 whole entry): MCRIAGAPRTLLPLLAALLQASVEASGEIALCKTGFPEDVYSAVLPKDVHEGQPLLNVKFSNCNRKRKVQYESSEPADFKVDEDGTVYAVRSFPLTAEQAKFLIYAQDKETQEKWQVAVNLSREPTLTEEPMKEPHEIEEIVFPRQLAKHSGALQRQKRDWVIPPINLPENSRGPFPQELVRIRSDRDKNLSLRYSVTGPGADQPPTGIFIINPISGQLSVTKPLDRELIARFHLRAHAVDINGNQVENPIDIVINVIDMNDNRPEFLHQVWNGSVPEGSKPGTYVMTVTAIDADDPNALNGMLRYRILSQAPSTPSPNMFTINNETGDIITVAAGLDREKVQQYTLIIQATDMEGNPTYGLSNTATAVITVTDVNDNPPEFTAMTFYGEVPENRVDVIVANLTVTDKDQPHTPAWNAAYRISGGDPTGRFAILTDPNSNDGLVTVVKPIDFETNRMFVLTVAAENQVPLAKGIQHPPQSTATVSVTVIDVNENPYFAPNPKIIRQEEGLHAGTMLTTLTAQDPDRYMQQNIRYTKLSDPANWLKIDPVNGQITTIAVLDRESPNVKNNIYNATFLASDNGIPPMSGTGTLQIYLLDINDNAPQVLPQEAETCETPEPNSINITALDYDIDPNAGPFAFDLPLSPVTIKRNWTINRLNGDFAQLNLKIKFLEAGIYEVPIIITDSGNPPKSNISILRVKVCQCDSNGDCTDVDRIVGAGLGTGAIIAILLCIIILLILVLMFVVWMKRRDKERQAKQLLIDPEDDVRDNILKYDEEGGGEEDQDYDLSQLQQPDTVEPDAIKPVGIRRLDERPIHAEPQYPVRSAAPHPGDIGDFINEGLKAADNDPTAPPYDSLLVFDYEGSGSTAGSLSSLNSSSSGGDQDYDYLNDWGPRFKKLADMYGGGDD

effect of a mutation on the interaction | Variant
disrupting interaction | MEMEKEFEQIDKSGSWAAIYQDIRHEASDFPCRVAKLPKNKNRNRYRDVSPFDHSRIKLHQEDNDYINASLIKMEEAQRSYILTQGPLPNTCGHFWEMVWEQKSRGVVMLNRVMEKGSLKCAQYWPQKEEKEMIFEDTNLKLTLISEDIKSFYTVRQLELENLTTQETREILHFHYTTWPDFGVPESPASFLNFLFKVRESGSLSPEHGPVVVHCSAGIGRSGTFCLADTCLLLMDKRKDPSSVDIKKVLLEMRKFRMGLIQTADQLRFSYLAVIEGAKFIMGDSSVQDQWKELSHEDLEPPPEHIPPPPRPPKRILEPHNGKCREFFPNHQWVKEETQEDKDCPIKEEKGSPLNAAPYGIESMSQDTEVRSRVVGGSLRGAQAASPAKGEPSLPEKDEDHALSYWKPFLVNMCVATVLTAGAYLCYRFLFNSNT [Y152F]

Variants of: B1
Conditions: with cadh2_mouse Cdh2, P15116
Remark: another data set of the same source

effect of a mutation on the interaction | Variant
disrupting interaction strength | MEMEKEFEQIDKSGSWAAIYQDIRHEASDFPCRVAKLPKNKNRNRYRDVSPFDHSRIKLHQEDNDYINASLIKMEEAQRSYILTQGPLPNTCGHFWEMVWEQKSRGVVMLNRVMEKGSLKCAQYWPQKEEKEMIFEDTNLKLTLISEDIKSYYTVRQLELENLTTQETREILHFHYTTWPDFGVPESPASFLNFLFKVRESGSLSPEHGPVVVHSSAGIGRSGTFCLADTCLLLMDKRKDPSSVDIKKVLLEMRKFRMGLIQTADQLRFSYLAVIEGAKFIMGDSSVQDQWKELSHEDLEPPPEHIPPPPRPPKRILEPHNGKCREFFPNHQWVKEETQEDKDCPIKEEKGSPLNAAPYGIESMSQDTEVRSRVVGGSLRGAQAASPAKGEPSLPEKDEDHALSYWKPFLVNMCVATVLTAGAYLCYRFLFNSNT [C215S]
